Test results: patent US20100254965A1, “Adenosine Signaling in Diagnosis, Treatment, and Prevention of Priapism and Erectile Dysfunction” (BOARD OF REGENTS ,THE UNIVERSITY OF TEXAS SYSTEM, priority 2006, published 2010)
Entries after “also recorded” stand apart in the source; their conditions may differ.

How the values were obtained:
[1] = tested on: multiple animal models, including humans; conditions: in vivo; cited from earlier work
[2] = tested on: corpus cavernosal strips (CCS); assay: Adenosine-induced relaxation of corpus cavernosal strips (CCS); type: cell-based, mouse; conditions: CCS of wild type mice, 1-10 μM, adenosine 100 μM
Protocol: FIG. 16. […] CCS of wild type mice were treated with different concentrations of adenosine with or without DCF (5 μM), a specific inhibitor of adenosine deaminase. Then the extent (mN) of force was monitored. (b) CCS of wild type mice were treated with 100 μM adenosine in the presence of different concentrations of DCF (0-100 uM). Then the extent of force was measured. Data are expressed as mean±SE. *p<0.05, adenosine treated versus the control, **p<0.05, DCF treated versus the adenosine treated.
FIG. 17. A2BR signaling is required for adenosine-mediated corpus cavernosal strips (CCS) relaxation. (a) CCS of wild type mice were treated with different concentrations of theophiline (1-10 μM) in the presence or absence of adenosine (100 μM). The force changes were measured by force transducer. Data are expressed as mean±SE. *p<0.05, adenosine treated versus the control, **p<0.05, theophiline treated versus the untreated, N=5. (b) CCS from wild type, A2AR, A1R A2BR and A3R-deficient mice were treated with different concentrations of adenosine. The relaxation was measured by force transducer. Data are expressed as mean±SE. *p<0.05, adenosine treated versus the wild type. (c) CCS were isolated from wild type and A2BR-deficient mice and treated with different concentrations of adenosine in the presence or absence of L-NAME (100 μM) or MRS1706 (10 μM). 10 min after treatment, cellular extracts were collected and cAMP levels were measured by using a commercial enzyme immunoassay kit (Amersham Pharmacia). Data are expressed as mean±SE. *p<0.05, adenosine treated versus the control without treatment; **p<0.05, adenosine treated with MRS1706 versus the adenosine treated alone; ***p<0.05, CCS of A2BR-deficient mice treated with adenosine versus the CCS of wild type mice treated with adenosine. N=6-7. (d) CCS of A2BR and ADA double deficient mice lost the hypersensitivity to nerve stimulation compared to ADA deficient mice.
(§1) Function experiments. The tunica albuginea was cut longitudinally, starting at the most proximal point of the corpus cavernosum (CC) toward the penile shaft, and the erectile tissue was partially dissected free from the tunica. One strip of tissue (0.3×0.3×3 mm) was obtained from each corpus cavernosum. The contractility of each isolated corpus cavernosum smooth muscle cells (CCSM) strip was measured using an isometric force transducer (AD Instrument Inc., Georgia, Vt., USA). The strip was mounted in a thermostatically controlled tissue bath containing aerated PSS (mM: 119 NaCl, 4.7 KCl, 24 NaHCO 3, 1.2 KH2PO4, 2.5 CaCl2, 1.2 MgSO4, 0.023 EDTA, and 11 glucose; 5 ml volume, 95% O2 and 5% CO2, 37° C.) and stretched to a resting tension of 0.1 mN. The contractile responses of the strips were analysed by adding 10 μM phenylephrine to the bath, and force changes were recorded in response to drug application and to electrical field stimulation. The particular electrical field stimulation parameters of 0-30V, 30 HZ with a pulse width of approximately 0.5 ms, are commonly used in the mice. […] The changes of cAMP and cGMP contents in CC strips were subsequently measured by commercial enzyme immunoassay kit (Amersham Pharmacia) (see below).

ADA-deficient mice [3] = conditions: cited from earlier work
[4] = tested on: corpus cavernosal strips (CCS); assay: EFS-induced relaxation of phenylephrine-precontracted corpus cavernosal strips (CCS) of ADA+ and ADA-/- mice; type: cell-based, mouse
Description: Prolonged penile erection in ADA-deficient mice is associated with increased corpus cavernosal relaxation in response to nerve stimulation. To determine if the potent and prolonged penile erection seen in ADA-deficient mice is associated with increased corpus cavernosal relaxation, we evaluated comparatively the relaxation of phenylephrine-precontracted isolated corpus cavernosal strips of ADA+ and ADA−/− mice in response to nerve stimulation^73,74. The corpus cavernosum is under sympathetic influence to maintain a contracted state resulting in a flaccid penis^3. To emulate this situation, contraction was induced by treatment with the α-adrenergic receptor agonist, phenylephrine (10 μM). The maximum phenylephrine-induced contraction was reached within 10-20 s after application to cavernosal strips from ADA+ and ADA−/− mice. Electrical field stimulation (EFS) is commonly used to stimulate the nerves that innervate the smooth muscle cells of the corpus cavernosum to mediate relaxation, corresponding to normal physiological penile erection^19,73,74,92,93. In our studies, EFS induced relaxation of corpus cavernosal strips from both ADA+ and ADA−/− mice in a voltage and frequency-dependent manner (FIGS. 14b and c). For ADA+ mice, relaxation increased incrementally over a standard voltage range with a maximal response at 20 V and 30 Hz.
Elevated adenosine in ADA-deficient mice contributes to increased corpus cavernosal strip relaxation. […]
Function experiments. […] The contractility of each isolated corpus cavernosum smooth muscle cells (CCSM) strip was measured using an isometric force transducer (AD Instrument Inc., Georgia, Vt., USA). […] The contractile responses of the strips were analysed by adding 10 μM phenylephrine to the bath, and force changes were recorded in response to drug application and to electrical field stimulation. […] The changes of cAMP and cGMP contents in CC strips were subsequently measured by commercial enzyme immunoassay kit (Amersham Pharmacia) (see below).

ADA-deficient mice [5] = assay: Spontaneous prolonged penile erection (priapic activity) in ADA-deficient mice, PEG-ADA enzyme therapy; type: in vivo, mouse; conditions: intraperitoneal injection of PEG-ADA
Protocol: The ADA-deficient mice were injected with PEG-ADA weekly. During the course of maintaining our production colony of ADA-deficient mice, we noticed that ADA-deficient male breeders (kept alive by enzyme therapy) frequently presented with prolonged penile erections lasting up to 72 hours (FIG. 1a). The penile erections were typically noticed at the time of the scheduled weekly PEG-ADA injection. We know from earlier studies that the lowest levels of circulating adenosine are achieved during the first day following the PEG-ADA injection^21,28. Adenosine levels rise continually during the subsequent days preceding the next PEG-ADA injection. Thus, adenosine levels are highest just prior to the scheduled weekly injection of PEG-ADA when the priapism was observed^21,28. Priapic erections were never observed in wild type male mice (FIG. 14a).
Prolonged penile erection in ADA-deficient mice depends on pronounced accumulation of adenosine in the penis. We hypothesized that the increased penile erection and corpus cavernosal smooth muscle relaxation in response to nerve stimulation in ADA-deficient mice were due to elevated concentrations of adenosine. To test this hypothesis, adenosine levels were quantified in penile tissue from ADA^+ and ADA^−/− mice^21,23,28. […]

[6] = tested on: corpus cavernosal strips (CCS); assay: EFS-induced relaxation of CCS of SCD transgenic mice and controls; type: cell-based, mouse
Protocol: FIG. 21. Priapic activity seen in SCD transgenic mice is dependent on elevated adenosine in penis via A2BR signaling. (a) Adenosine levels in the penis increased in SCD transgenic mice. Perchloric acid extracts of penile tissues from SCD transgenic mice and control mice were analyzed by HPLC to determine the levels of adenosine. The data are expressed as mean±SE. *p<0.005, (control n=5 and SCD transgenic mice n=6), SCD transgenic mice versus the controls. (b) Increased corpus cavernosum strips (CCS) relaxation by electrical field stimulation (EFS) in SCD transgenic mice. Relaxation effect of EFS with different voltages (0-30V) at 30 Hz and 0.5 ms pulse width, alternating polarity between pulses, in 10 μM phenylephrine-precontracted CCS from the controls (n=5) and SCD transgenic mice (n=5). (c-e) Prolonged penile erection seen in SCD transgenic mice is due to high levels of adenosine in the penis via A2BR signaling. Average EFS-induced relaxation from the PE-precontracted CC strips of the controls and SCD transgenic mice treated without or with PEG-ADA, MRS1706 or ZM241389. EFS-induced force change (c), duration of relaxation by EFS (d) and area under basal line (e) were representative of the CCS relaxation. (n=5 for the controls and n=5 for SCD transgenic mice with or without PEG-ADA, MRS1706 or ZM241389 treatment, respectively). Data are given as means±SE. *p<0.05, SCD transgenic mice versus the controls, **p<0.05, CCS of […] with PEG-ADA, MRS1706 or ZM241389 treatment versus CCS of SCD transgenic mice without treatment; ***p<0.05, CCS of the control mice with MRS1706 and/or L-NAME treatment versus CCS of the control mice without treatment.
Sickle cell disease (SCD) transgenic mice, expressing exclusively human sickle hemoglobin, were also used. These mice were age-matched, adult male homozygotes [SS^−/−, consisting of a transgene and two targeted gene deletions: (Tg (Hu-miniLCR alpha 1G gamma A gamma delta beta s) Hba0//Hba0 Hbb0//Hbb00) and heterozygotes (SS^−/+, SS^−/− genotype except Hbb0//Hbb+), developed on a mixed-strain background (mouse strains FVB/N, 129, DBA/2, C57BL/6, Black Swiss)^94,95.
as §1

Cn1c(=O)c2[nH]cnc2n(C)c1=O [theophyline, theophylline]
adenosine-induced penile tumescence [1]: inhibited adenosine-induced penile tumescence
inhibition of adenosine-mediated corpus cavernosal strip relaxation [2]: significantly inhibited adenosine-mediated corpus cavernosal strip relaxation in a dosage dependent manner

CCCn1c(=O)c2[nH]c(-c3cnn(Cc4cccc(C(F)(F)F)c4)c3)nc2n(CC)c1=O [CVT-6883]
adenosine-mediated pulmonary fibrosis and enlargement of alveolar airspaces (ADA-deficient mice [3]): significantly reduces adenosine-mediated pulmonary fibrosis and enlargement of alveolar airspaces

CNC[C@H](O)c1cccc(O)c1 [phenylephrine]
time to maximum phenylephrine-induced contraction ([4]; 10 μM, cavernosal strips from ADA+ and ADA-/- mice): 10 to 20 s

B1: PEG-ADA: purified bovine ADA covalently modified with activated polyethylene glycol; modified form of ADA used for enzyme therapy (protein, UniProt P56658 2-363, looked up)
Adenosine deaminase: AQTPAFNKPKVELHVHLDGAIKPETILYYGRKRGIALPADTPEELQNIIGMDKPLSLPEFLAKFDYYMPAIAGCREAVKRIAYEFVEMKAKDGVVYVEVRYSPHLLANSKVEPIPWNQAEGDLTPDEVVSLVNQGLQEGERDFGVKVRSILCCMRHQPSWSSEVVELCKKYREQTVVAIDLAGDETIEGSSLFPGHVKAYAEAVKSGVHRTVHAGEVGSANVVKEAVDTLKTERLGHGYHTLEDATLYNRLRQENMHFEVCPWSSYLTGAWKPDTEHPVVRFKNDQVNYSLNTDDPLIFKSTLDTDYQMTKNEMGFTEEEFKRLNINAAKSSFLPEDEKKELLDLLYKAYGMPSPASAEQCL
modifications: PEG
notes: modified form of ADA used for enzyme therapy
force, duration and area under baseline of EFS-induced relaxation ([4]; CCS from ADA-/- mice, EFS 5V and 30 Hz for 60 s, versus untreated CCS): significantly reduced the force, duration and area under baseline
EFS-induced CCS relaxation ([4]; CCS of control (ADA+) mice, EFS 5V and 30 Hz): decreased the EFS-induced CCS relaxation
prolonged penile erection / priapic activity (ADA-deficient mice [5]): quickly corrected; also recorded: quickly reverses the priapic activity; also recorded: relieved the prolonged penile erection
force, duration and area under baseline of EFS-induced relaxation ([6]; CCS of SCD transgenic mice versus untreated CCS): significantly reduced the force, duration and area under baseline
force, duration and area under baseline of EFS-induced relaxation ([6]; CCS of the controls): decreased the force, duration and area under baseline
pulmonary inflammation and fibrosis (ADA-deficient mice [3]; lowering adenosine by PEG-ADA therapy): can prevent and even reverse aspects of pulmonary inflammation and fibrosis
